Substrate in this series: CCCCC/C=C\C\C=C/C=C/C=C/[C@@H](SC[C@@H](NC(=O)CC[C@H](N)C(=O)O)C(=O)NCC(=O)O)[C@@H](O)CCCC(=O)O
As to the kind of experiment: cells, lysate or membranes named.

B1: Multidrug resistance-associated protein 1 (Mus musculus) (protein)
chain: MALRSFCSADGSDPLWDWNVTWHTSNPDFTKCFQNTVLTWVPCFYLWSCFPLYFFYLSRHDRGYIQMTHLNKTKTALGFFLWIICWADLFYSFWERSQGVLRAPVLLVSPTLLGITMLLATFLIQLERRKGVQSSGIMLTFWLVALLCALAILRSKIISALKKDAHVDVFRDSTFYLYFTLVLVQLVLSCFSDCSPLFSETVHDRNPCPESSASFLSRITFWWITGMMVHGYRQPLESSDLWSLNKEDTSEEVVPVLVNNWKKECDKSRKQPVRIVYAPPKDPSKPKGSSQLDVNEEVEALIVKSPHKDREPSLFKVLYKTFGPYFLMSFLYKALHDLMMFAGPKILELIINFVNDREAPDWQGYFYTALLFVSACLQTLALHQYFHICFVSGMRIKTAVVGAVYRKALLITNAARKSSTVGEIVNLMSVDAQRFMDLATYINMIWSAPLQVILALYFLWLSLGPSVLAGVAVMILMVPLNAVMAMKTKTYQVAHMKSKDNRIKLMNEILNGIKVLKLYAWELAFQDKVMSIRQEELKVLKKSAYLAAVGTFTWVCTPFLVALSTFAVFVTVDERNILDAKKAFVSLALFNILRFPLNILPMVISSIVQASVSLKRLRIFLSHEELEPDSIERRSIKSGEGNSITVKNATFTWARGEPPTLNGITFSIPEGALVAVVGQVGCGKSSLLSALLAEMDKVEGHVTLKGSVAYVPQQAWIQNDSLRENILFGHPLQENYYKAVMEACALLPDLEILPSGDRTEIGEKGVNLSGGQKQRVSLARAVYSNSDIYLFDDPLSAVDAHVGKHIFEKVVGPMGLLKNKTRILVTHGISYLPQVDVIIVMSGGKISEMGSYQELLDRDGAFAEFLRTYANAEQDLASEDDSVSGSGKESKPVENGMLVTDTVGKHLQRHLSNSSSHSGDTSQQHSSIAELQKAGAKEETWKLMEADKAQTGQVQLSVYWNYMKAIGLFITFLSIFLFLCNHVSALASNYWLSLWTDDPPVVNGTQANRNFRLSVYGALGILQGAAIFGYSMAVSIGGIFASRRLHLDLLYNVLRSPMSFFERTPSGNLVNRFSKELDTVDSMIPQVIKMFMGSLFSVIGAVIIILLATPIAAVIIPPLGLVYFFVQRFYVASSRQLKRLESVSRSPVYSHFNETLLGVSVIRAFEEQERFIHQSDLKVDENQKAYYPSIVANRWLAVRLECVGNCIVLFAALFAVISRHSLSAGLVGLSVSYSLQITAYLNWLVRMSSEMETNIVAVERLKEYSETEKEAPWQIQETAPPSTWPHSGRVEFRDYCLRYREDLDLVLKHINVTIEGGEKVGIVGRTGAGKSSLTLGLFRINESAEGEIIIDGVNIAKIGLHNLRFKITIIPQDPVLFSGSLRMNLDPFSQYSDEEVWMALELAHLKGFVSALPDKLNHECAEGGENLSVGQRQLVCLARALLRKTKILVLDEATAAVDLETDNLIQSTIRTQFEDCTVLTIAHRLNTIMDYTRVIVLDKGEVRECGAPSELLQQRGIFYSMAKDAGLV
B1: the Km came to 0.05 µM.

The term Km denotes the substrate concentration at which the rate is half of its maximum.

These data come from ChEMBL document CHEMBL2074511, “Molecular cloning and pharmacological characterization of rat multidrug resistance protein 1 (mrp1)” (Drug Metab Dispos, 2003).
